These results are taken from patent US20240043528A1, “NANOBODY-OGA FUSIONS AND USES THEREOF” (President and Fellows of Harvard College, priority 2020, published 2024).

The target of one data set is T1, HA-OGA(414-916), O60502.
T1 chain: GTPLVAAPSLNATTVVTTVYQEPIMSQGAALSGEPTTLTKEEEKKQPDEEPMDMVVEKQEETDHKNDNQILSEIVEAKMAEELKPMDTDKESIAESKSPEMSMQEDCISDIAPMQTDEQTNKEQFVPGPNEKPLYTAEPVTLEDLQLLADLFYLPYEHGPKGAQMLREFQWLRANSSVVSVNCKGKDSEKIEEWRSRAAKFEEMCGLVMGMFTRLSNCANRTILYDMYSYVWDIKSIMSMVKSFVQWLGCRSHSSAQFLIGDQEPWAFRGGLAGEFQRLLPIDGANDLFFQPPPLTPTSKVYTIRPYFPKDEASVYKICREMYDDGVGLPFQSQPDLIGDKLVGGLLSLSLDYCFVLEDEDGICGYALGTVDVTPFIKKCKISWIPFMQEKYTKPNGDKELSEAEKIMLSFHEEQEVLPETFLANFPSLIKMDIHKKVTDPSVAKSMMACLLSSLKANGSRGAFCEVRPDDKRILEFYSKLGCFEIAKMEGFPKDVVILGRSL

For the next data set, the target named is T2, myc-OGA(1-400) (human, UniProt O60502 1-400).
T2 construct: also called N2; N fragment
T2 sequence: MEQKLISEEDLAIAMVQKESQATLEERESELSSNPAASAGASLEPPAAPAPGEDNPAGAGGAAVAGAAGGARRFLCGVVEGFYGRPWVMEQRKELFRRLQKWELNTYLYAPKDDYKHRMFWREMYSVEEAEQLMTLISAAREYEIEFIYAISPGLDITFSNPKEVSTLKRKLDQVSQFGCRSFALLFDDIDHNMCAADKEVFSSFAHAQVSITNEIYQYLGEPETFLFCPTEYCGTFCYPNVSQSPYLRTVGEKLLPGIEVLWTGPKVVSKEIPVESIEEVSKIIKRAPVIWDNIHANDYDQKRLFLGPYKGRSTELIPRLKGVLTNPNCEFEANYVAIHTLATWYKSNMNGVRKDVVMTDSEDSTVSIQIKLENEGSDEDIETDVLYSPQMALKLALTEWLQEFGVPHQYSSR
Put plainly: co-immunoprecipitation (anti-c-Myc / anti-HA magnetic beads) from HEK 293T lysates, immunoblot. Here is the method: The asterisk indicates IgG heavy chain from anti-c-Myc magnetic beads. […] In FIG. 9A and FIG. 9C, activities of fragments alone or pairs with/without nGFP were evaluated on GFP-Nup62, which was enriched by beads against EPEA tag and blotted with RL2 antibody to reveal O-GlcNAc modification level. D174N is a catalytically impaired mutation on OGA. Anti-myc and anti-HA blots detect expression of full-length (fl-OGA) or N-terminal fragment, and C-terminal fragment, respectively. WCL, whole cell lysates. The data in FIGS. 9A-9C are representative of at least two biological replicates.
For immunoprecipitation of proteins with anti-HA (Pierce, 88836) or anti-c-Myc (Pierce, 88842) magnetic beads, cell lysates with equal amounts of protein were diluted with 1×TBS-T buffer (25 mM Tris HCl pH 7.4, 150 mM NaCl, 0.05% Tween-20) and incubated with pre-washed magnetic beads at room temperature for 30 min with mixing, following the manufacturer's instructions. Anti-HA magnetic beads were washed three times with TBS-T buffer and once with ultrapure water. Anti-c-Myc magnetic beads were washed three times with 5×TBS-T buffer and once with ultrapure water. The enriched proteins were eluted with SDS sample buffer and subjected to SDS-PAGE.

For another data set, the system named is GFP-Nup62. The data set can be described thus: Deglycosylation of GFP-Nup62 co-expressed with OGA constructs (anti-EPEA enrichment, RL2 immunoblot). It is filed as cell-based, human. Conditions: for deglycosidase activity on GFP-Nup62 of N fragment: N fragment paired with C1 (aa 414-916). Here is the method: HEK 293T cells were cultured in Dulbecco's Modified Eagle Medium (DMEM, Cat #11995073) supplemented with penicillin (50 μg/mL) and streptomycin (50 μg/mL) along with 10% (v/v) FBS. Transfections of all plasmids in this study were performed using TransIT-PRO® (Mirus Bio, Cat #MIR 5740) according to the manufacturer's instructions.
Glycoproteins Nup62, Sp1, JunB, c-Jun were subcloned into pcDNA3.1 vector with a GFP and a Flag-tag or a BC2 tag in the N-terminus and an EPEA tag in the C terminus respectively, unless otherwise noted. For all split OGA constructs with or without the fusion of nanobody GFP, N fragments were tagged with myc tag and C fragments were tagged with HA tag respectively. Human SP1 cDNA ORF plasmid (Cat #HG12024-G), human c-Fos cDNA ORF plasmid, and human OGT cDNA ORF cloned with a C-terminal His tag (Cat #HG11279-M) were purchased from Sino Biological. For subcloning, PCR fragments were amplified using Q5 High-Fidelity 2× Master Mix (New England BioLabs, Cat #M0492S). The vectors were double-digested and ligated to gel-purified PCR products by T4 ligation using T4 DNA ligase (New England BioLabs, Cat #M0202S) or by Gibson assembly using Gibson Assembly Master mix (New England BioLabs, Cat #E2611L). c-Fos was subcloned into a pcDNA3.1 vector with a 14-residue Ubc tag (amino acids: QADQEAKELARQIA (SEQ ID NO: 11)), Flag tag, and EPEA tag at the C terminus. All nanobody DNA fragments were synthesized by IDT.
After 36-48 h of transfection, cells were harvested and washed with PBS once. Cells were lysed with M-PER lysis buffer containing 1× protease inhibitor cocktail and 10 μM Thiamet-G unless otherwise noted. Protein concentrations were determined by the BCA assay kit (G-Biosciences, 786) on a multi-mode microplate reader FilterMax F3 (Molecular Devices LLC, Sunnyvale, CA).
For immunoprecipitation of proteins with the C-terminal EPEA tag, cell lysates with equal amounts of protein were diluted with PBS and incubated with C-tag affinity matrix (Thermo Scientific) for 1 h at room temperature, with end-to-end rotation, following the manufacturer's instructions. After washing three times with PBS buffer, the enriched proteins were eluted with SDS sample buffer and subjected to SDS-PAGE.
For immunoblotting analysis, proteins were transferred to a nitrocellulose membrane using iBlot (Thermo Scientific). Membranes were blocked with Tris buffered saline containing 0.1% Tween-20 and 5% BSA and incubated with the primary antibodies (1:1000 dilution) and the secondary antibodies (1:10,000 dilution) sequentially. Immunoblot images were captured by Azure Imager C600. Analysis of immunoblots was conducted with Fiji ImageJ. All IR fluorescence western blot images are converted into grayscale images by Fiji ImageJ. The unsaturated exposure of immunoblot images was used for quantification with the appropriate loading controls as standards. Statistical analysis of the data was performed with Prism 8, using data from at least three independent experiments.

“Also recorded” adds a separate entry of the source.

B1: myc-OGA(1-413) (protein)
chain: MVQKESQATLEERESELSSNPAASAGASLEPPAAPAPGEDNPAGAGGAAVAGAAGGARRFLCGVVEGFYGRPWVMEQRKELFRRLQKWELNTYLYAPKDDYKHRMFWREMYSVEEAEQLMTLISAAREYEIEFIYAISPGLDITFSNPKEVSTLKRKLDQVSQFGCRSFALLFDDIDHNMCAADKEVFSSFAHAQVSITNEIYQYLGEPETFLFCPTEYCGTFCYPNVSQSPYLRTVGEKLLPGIEVLWTGPKVVSKEIPVESIEEVSKIIKRAPVIWDNIHANDYDQKRLFLGPYKGRSTELIPRLKGVLTNPNCEFEANYVAIHTLATWYKSNMNGVRKDVVMTDSEDSTVSIQIKLENEGSDEDIETDVLYSPQMALKLALTEWLQEFGVPHQYSSRQVAHSGAKASVVD
As to B1, the “deglycosidase activity on GFP-Nup62 (O-GlcNAc RL2 immunoblot)” value with HA-OGA(414-916), O60502 was “The N- and C-terminal fragments can associate to reconstitute OGA enzymatic activity when co-expressed simultaneously in living cells”.

B2: HA-OGA(554-706) (enzyme, human, UniProt O60502 554-706, looked up)
chain: TLEDLQLLADLFYLPYEHGPKGAQMLREFQWLRANSSVVSVNCKGKDSEKIEEWRSRAAKFEEMCGLVMGMFTRLSNCANRTILYDMYSYVWDIKSIMSMVKSFVQWLGCRSHSSAQFLIGDQEPWAFRGGLAGEFQRLLPIDGANDLFFQPP
notes: range 554-706; the legend prints C4; also called C4; not shown: N-terminal HA tag
With B2, the binding result with myc-OGA(1-400) is “no binding”.

B3: OGA(cat): catalytic domain of OGA alone, residues 1-366, myc tag (protein, UniProt O60502 1-366, looked up, fragment)
chain: MVQKESQATLEERESELSSNPAASAGASLEPPAAPAPGEDNPAGAGGAAVAGAAGGARRFLCGVVEGFYGRPWVMEQRKELFRRLQKWELNTYLYAPKDDYKHRMFWREMYSVEEAEQLMTLISAAREYEIEFIYAISPGLDITFSNPKEVSTLKRKLDQVSQFGCRSFALLFDDIDHNMCAADKEVFSSFAHAQVSITNEIYQYLGEPETFLFCPTEYCGTFCYPNVSQSPYLRTVGEKLLPGIEVLWTGPKVVSKEIPVESIEEVSKIIKRAPVIWDNIHANDYDQKRLFLGPYKGRSTELIPRLKGVLTNPNCEFEANYVAIHTLATWYKSNMNGVRKDVVMTDSEDSTVSIQIKLENEGSDE
modifications: catalytic domain myc tag
notes: catalytic domain of OGA alone, residues 1-366, myc tag
B3: the “deglycosidase activity on GFP-Nup62 of N fragment” value in the data set with GFP-Nup62 (HEK 293T cells) was “no activity was seen on GFP-Nup62”. Also, the “deglycosidase activity / O-GlcNAc modification level on GFP-Nup62” value in the data set with GFP-Nup62 (co-expressed in HEK 293T cells) was “inactive”. The “deglycosidase activity on GFP-Nup62 after fusion of nGFP” value in the data set with GFP-Nup62 (nGFP fused to a fragment, HEK 293T cells, listed as N3) is on record as “could not be recovered; also recorded: unable to reconstitute OGA's activity with any C-fragments shown in this study even in the presence of nGFP”.

B4: N2: myc-OGA(1-400) N fragment (SEQ ID NO: 4) (protein)
chain: T2 sequence
modifications: myc tag
With B4, in the data set with GFP-Nup62 (HEK 293T cells), the “deglycosidase activity on GFP-Nup62 of N fragment” value was “possessed deglycosylation capability when paired with C1”.
